Measured values published in a protein production outcome set (Wang et al. 2014).

Test: label from the status in PepcDB records

Row | Sequence | protein production
1 | RIPDIEEVELAEAPADKVLPDGFYVTTNHPTFVRYGGEWLPVEDISMDRVIVIRDGRAYCIPIDEVVRGDRVVVGEKGVRVVPPERPRKSTVFEFMGGRVSSERPTERMIEAIAREIYELKLKGGKIAVVAGPAVDHTSARNALAALIRDGYVDLLLSGNALAVHDIEISIFGTSLGMDICKGRPVPGGNRHHLYTISKVIAAGGIKKAIEKGIIKDGIMYECVKNNVPFILAGSIRDDGPLPEVITDVMVAKKKMKEALRGINMVIMLATMLHSIAVGNLLPSYVKTICVDMNPSTVTKLMDRGTHQAIGVVTDVGLFLPLLYLKIKE | failed
2 | MSNEDNVRQETKNKKEKLRLSFPETRFMKFMGGKDLLFALIMLILIGIAIFIFDQVSYIFKPFIIVFNTIVAPIIVSIILYYLFNPLVNLMERYNISRLWGVIILFLVIIGVIALAINLLIPVIGTQFKSFGNNFPHYVDKVNQFIDNLTRNSLISNFYGQIQEQLDALANKLPSMVSDYFNGFGSKVKNFAEAIVNVGVVIATTPFVLFFMLKDSHHFKEYSTKLMPPKFRKDYHDLLDKMSVQVGSYIQGQIIVSFCIGILLFIGYSIIGLDYSLILASIAAVTSVVPYLGPTIAISPAIIIALITSPIMLLKLIIVWTAVQFIEGHFISPNIMGKTLKIHPLTIIFILLSAGNLLGVVGVILGIPAYAILKVLVSHLYSMYKRRYNKYYGDDAGEYEITNDEQIR | failed
3 | MSISSKAKEILTQFTREVWSEGNIEASDKYIAPKYTVLHDPGDPWEGRELDVAGYKERVKTLRAAFPDQCFDIQGLFADGDAVVMTWLWTATHKEDIPGFPSTGKQIKMSGATVYYFDGNRLTGHWQITDRLGVYQQLRQAAAGA | not failed
4 | MRLTDQKRESIVQAAIAEFGDRGFEITSMDRIAARAEVSKRTVYNHFPSKEELFAEMLQRLWNCAPPQSEVVYRPLVSLREQLLELLWGKMRNLTDSSFLDLARVVVGATIHSPERAQVWLARINEREETFSAWIRAAQKDGRLKPVDPGFAATQMHALLKSFAFWPQVTFNAALLTPQEQSNVVESALNMFLGWYEIPG | not failed
5 | MSAKDLPNGGPRLIDRYLLRLLLWPLAACLGVTVIALLLERILRLLDVLSQSSARFGYVAQLAANLVPHYLGLALPVAFFVALFIVIVKLSDGSEIDALLASGQSLERIAAPFVAVGVLLSVFSIIVFGYMQPYSRYAYRAVMHAAVNAGWNGRLAGGAFIDDKGSLLTADSADIAGQRLTRVFIRRLDAKGQEEIITAASADLKMDPDGKTITMDLRDGRRIAHDAYGTYRNLAFTSLTTQTPLSAAAVLLRDRGGDERELTMGELRREAKSPDPVVSKGTLLSEFYGRLARAAFLPFLPLLAFPLGLASKRGNRAPGLIMAGLLLLAFQHSLLLGQGMAKAGKADAFAAIWIPFTLFAALSVWLFVGSRTRPGDTPVSRLVRRINTLVTHALRLLPQPKKRQAA | failed
6 | MADTVEEPQLQNGAAPAESETEQNPIPEPQLQTEPKLTGEIPEIEADLTPEEVQSEVTDAKPEEVQSEVKPEEVKTVVTDAKPEEAQSEVKPEEVQSVVTDTKPDLTDVDLSPGGSEEIPIRSTEVEQESTTSVLKKDDDGNKTFTMRELLSELKSEEGDGTPHSSASPFSRESASQPAENNPAMDLINRIQVNDEEGRSRQRVLAFAARKYASAIERNPDDHDALYNWALILQESADNVSPDSVSPSKDDLLEEACKKYDEATRLCPTLYDAYYNWAIAISDRAKIRGRTKEAEELWEQAADNYEKAVQLNWNSSQALNNWGLVLQELSQIVPAREKEKVVRTAISKFRAAIRLQFDFHRAIYNLGTVLYGLAEDTLRTGGSGNGKDMPPGELYSQSAIYIAAAHSLKPSYSVYSSALRLVRSMLPLPHLKVGYLTAPPVGNSLAPHSDWKRTEFELNHERLLQVLKPEPREMGRNLSGKAETMSTNVERKTVKVNITEIVSVTPCADLTLPPGAGLCIDTIHGPVFLVADSWESLDGWLDAIRLVYTIYARGKSDVLAGIITG | failed
7 | MVRVVRHSRGTCNRGLYEVRELARNRTLQQWGVEDSAELYGIRNWGAGYFDVAQNGDVVVYPFGHNRGPAVSIPEIIGGMRERGYDMPVLLRIENILDSQITSLHTSFRNAIGSLGYKGEYRGIFPIKVNQQQQVVEKIAQFGSHYHHGLEVGSKAELIAAVSQLRDREACLVCNGYKDEEFIDLGLHAVRLGFMCIFVLEMPGELDLILERGEALGVKPIIGVRAKLSVKAGGHWTDSGGERSTFGLTTSQIVDVVDRLKEKGMLDCFKLLHYHLGSQVPNIRDIRAAVMEACRIYAGLVQEGAAMGFLDLGGGLAVDYDGSHTNFVSSRNYTLDEYCADIVEAVMTTLDEQNIPHPHIVTESGRATVAYYSMLLFNILDVSRVEIGNLPDALPEDTPEPVRNMREVLAGMTLRNLQECYNDALYYRDAVRQLFLTGQVTLRQRTLSERLFWAIMKRIAQEKQKLKHVPKDLAEIDVALADIYYGNFSVFQSLPDSWAIDQLFPVMPVHRLQELPSRQGILSDITCDSDGRIDHFIDPQGMKGTLDLHPLRDGEEYYLGVFLVGAYQETLGDLHNLLGDTNVVSVRVHEDGTYEFVREIRGDSVADILSYVEYDPRRIYEDIRELAERAVREGRITASDRFRVMQAYEDGLRGYTYFERLEHHHHHH | failed
8 | MHLDPDACYHAVQSRDRRFDGWFFVGVTSTGVYCRPICAVRTPLQKNCRFFASAAAAEKAGFRPCLRCRPELAPGHSLAEMSSSLARAAARMIDEGFLQQHDLAALAAAVGVTDRHLRRIFRAEFDVSPIEYAQTQRLLLAKRLLTDTAMPVGDVAYAAGFGSVRRLNSGFAEHYGFAPTRLRTRAAPVSRGDDGATLMLGYRPPFAWHALLDFLRARAVDGVEVVDAHSYARTIALDYAGRRHAGWLRARDVPQRHAIALTLSASLVQAMPPVLARVRRLFDLDCRPDLVDTHLGTLAAGTPGLRVPGAVDGFEIAVRAIAGQVVSLARARRILARLAAAYGTPLAQPRAGLPTAFPSATALASVDPQALSGETGLQASRAAAMVEIARAIDAGRLRLEPLVPLAPTLAALQALSGIGEWTAQYIAMRALGWPNAFPLGDYVLRKRLADHDGTLPTRHAMATRAEDWAPWRAYAAMHLWHRDDAQAPTP | failed
9 | MTDNTRLRIAMQKSGRLSDDSRELLARCGIKINLHTQRLIAMAENMPIDILRVRDDDIPGLVMDGVVDLGIIGENVLEEELLNRRAQGEDPRYFTLRRLDFGGCRLSLATPVDEAWDGPLSLNGKRIATSYPHLLKRYLDQKGISFKSCLLNGSVEVAPRAGLADAICDLVSTGATLEANGLREVEVIYRSKACLIQRDGEMEESKQQLIDKLLTRIQGVIQARESKYIMMHAPTERLDEVIALLPGAERPTILPLAGDQQRVAMHMVSSETLFWETMEKLKALGASSILVLPIEKMME | not failed
10 | RQVTDSDETEELIHLLLDNYAEGKIVKLLFMSENATQPVISQVAKENDVMLNVLHGNLTQTQNGAYGTLYVQVLGTEEAIEASLTQLRQLKVETEVLER | not failed
11 | MSTAGLFSIFLIGIASNLDNAGVGIAYGIRKIRISWFNNFIIAFFGFLFTLLAGFFGNWIALFISEFTANLIGAIVLGIIGVFILCQPFLGQRNTVGSKDGNVLMGILRDPEKADFDGSKTISFSEAIVLGIALSINNIAGGFDAGITNLNLWLTATISGVFSFICISGFAYVGKRFLAEYLGKWATIIAEVLLILIGIDQLL | failed
12 | MAGGGNRRDEGSITIQSTNLFAALDTRKKKKKSDKAGKSKGSSKSREPEKEPEPQVYWAPTPLKVKSWADIDDEDDDDDYYATTAPPQSGWSTSLPSHTDSKDVHVEESESEEDILDEGDDDVEEEQEQETEVQVHPEPEVKKAPEVPAPPKEAERQLSKKERKKKELAELEALLADFGVAPKENNGLEESQEAGQEKKEDVNGEGEKKENAAGGESKASKKKKKKDKQKEVKESQEQQANNNADAVDEAAGSEPTEEESPIDVKERIKKLASMKKKKSGKEVDAAAKAAAEEAAARRKKLAAAKKKEKNHYNQQPVR | failed
13 | MKQFGGPVLFLDRSDINTDEIIPAKYLTEITKEDLKPYILEDLKLPGFDPKGEKTKTARVVVSRANFGCGSSREHAPWVFEVNGITAVIAESFARIFRQNMFNCGMAAIELSADTIEGLFTYAGCADAAISIDVAGQTLTISGGGTSETHSFDISPFDKALVLAGGWVDYADSKY | failed
14 | MSRGHCILAHGFESGPDALKVTALAEVAERLGWTHERPDFTDLDARRDLGQLGDVRGRLQRLLEIARAATEKGPVVLAGSSLGSYIAAQVSLQVPTRALFLMVPPTKMGPLPALDAAAVPISIVHAWHDELIPAADVIAWAQARSARLLLVDDGHRLGAHVQAASRAFAELLQSL | not failed
15 | MSNFFSVRIETLGCRLNQVESEALAVRFAECGFDVFSKEAETSILPVKLCIVNTCTVTGKAEQKARRLIRLLLKEHEESVILVTGCYAELEADSIEKINKRIIAFSGKKKDELDGLPQFLKDSCLKNKDLKEDTVNLKKNLLIFRNEIYAKEDQQDKSFLLKETERRKSMFKLSSPVFVFHSRASLKIQDGCNNACAYCRIRLARGTSVSLPAEEAVRRIVQIEKNGAAEVVLSGVNLSQYRDETYGGFANLLAKLLENTKKIRLRISSMYPECVDDGILEIVANKRICPHFHLSIQSGSDKILKAMNRPYREADIRMAINNLRKAKDNPFIGCDIITGFPSETEEDFLQTFKMCEDLKIPGIHVFPFSARPGTKAFSMRPKVPEREAGRRASLLSELSGKNYQSYLASCNGKLFFGVIEKPQNNEDLRIVTENYLSLPLVVNKKAENYKGGEGLFVVIKDGNAYLAD | failed
16 | MVHHDGTLQALITAYQKTPAFTDLAEATRKGYIRHIRQIEADFGDMPVQALADPRVRGEFLDWRDRLAQKSKRSADYAFSVLARILSWAHDRRKIPVNPCEKPGRLEHHHHHH | failed
17 | MANKKGRRRSFGSCRQLASGRWQVRYRDPQTGLLRPAEKTYETKTDAQVALTHIEADITRGQWADPDAGDVNFADYATAWLRDRKLADRTRERNESVMRLHVVPVFGAGSIADVTTARVRSWRGKLLAAGVGEPTVVKAYQLLRALMNTAVDDELIRRNPCRIKGADSYDVPERPVLSVAEVFGVAYAIAPRYRLLVLLAAFTTLRFGELAALRRKDIDLNGRLVVVRRAQAELQNGRLFDKAPKSAAGLRTVSFPAELVDEISHHLKHYAADGQEGHLFVGPQGGQLRRSNFRDDWIKARKAAGVSPKLHFHDLRHTGNTLASTAGASTRELMTRMGHSSSRAALIYQHMTSDRDRTIADRLGAMIRNGEGDLTAAGD | failed
18 | MVITLSRLYVHPVKSMRGLQLSHAQVSSSGLAFDRVFMITEPDGTFITARQYPKMVMFTPALMSDGLYLTAPDGESASIRFNDFLANAEPTEVWGNHFTALIAPAAINNWLSGYFQREVQLRWLGPELTRRVKPMPEIPLSFADGFPYLLINEASFKELQQRCPGSIKLEQFRPNLLVTGASAFAEDSWQVIRVGDITFDLVKPCSRCVLTTVSVERGRKHPTGEPLQTLQTFRTAENGDIDFGQNMVARNSGIIRVGDEVEVLSTKPPRPYGAGAVVESLAAPEDKSKAVAIEYNGIRFNGNNQQVLLEQLEQQNIRIPYSCRAGICGSCRITLINGEVAPLKQSAIGNDGTILCCSCIPKGDITLSGK | failed
19 | MGHHHHHHSHMSEYLAAADYLPHSAPMVLVDEVIHVDDEHAHCRVAVSREGILAPFLNAQGHLPAWFGIEIIAQTIGVWSGWHGRQSLGLQEKPRPGMLLGGRGYHCQQAIFPAGSLLDVTVMLVMRDEKIGSFEGEIAIDGEKYASGRLNTYQPDDRELNILLEQGKPL | failed
20 | RRLPTVLLKLRMAQHLQAAVAFVEQGHVRVGPDVVTDPAFLVTRSMEDFVTWVDSSKI | not failed
21 | MAHGPTRQKITLTTEVAAEPAEVWARIGDFQDMSWHPAVHSSTGENGNEIDATRVLSLGAADGPTISEILYKYSDEKMSYSYRITDVLVEVLPVTNYSSHLTVKARDGGGSVIEWRGAFYRGYPNNDPPEDLEHHHHHH | failed
